Drawing on PMC6606808, this text covers stoichiometry N for one substance.

The target of the assay is Acinetobacter baumannii AdeB multidrug efflux pump (Acinetobacter baumannii AB0057). Kind of assay: cryo-EM structure; single-particle cryo-EM of purified AdeB reconstituted in lipidic nanodiscs (MSP 1E3D1, E. coli total extract lipid); 20 mM Tris-HCl pH 7.5, 100 mM NaCl; no substrate; C3 symmetry; 2.98 Å.

“Acinetobacter baumannii AdeB multidrug efflux pump (natural protein)”: the stoichiometry N came to 3.

By stoichiometry N is commonly meant the number of molecules, sites or subunits per partner or assembly.
